Measurements from paper doi:10.1101/2020.05.13.093591.

Molecular target: PfPDI8 (PF3D7_0827900), 3xV5-tagged at the endogenous locus (P. falciparum (3D7))
Test: cross-linking + co-IP

PfBiP, the Hsp70 Binding immunoglobulin Protein (natural protein)
fold increase of co-immunoprecipitated PfBiP with DVSF against without DVSF: 2 fold
